Measurements published in PMC9894162.

Target: GST-NS5 (Zika virus, UniProt A0A1B0XTC8 2521-3423)
Assay: EMSA

B1: genomic Sox2 DNA duplex (dsDNA)
DNA 1: TCAGCAAGCGCCTGGGCGCCGAGTGGAAACTTTTG
DNA 2: CAAAAGTTTCCACTCGGCGCCCAGGCGCTTGCTGA
B1: binds.
